What all share (conditions): both partners purified
Assay [1] deals with T1, Mouse TBC1D23 (559-684), C-terminal domain (mouse, UniProt Q8K0F1 559-684).
T1 construct: TBC1D23, mouse, UniProt Q8K0F1 (684 residues), C-terminal domain, residues 559-684; also called TBC1D23 C-terminal domain; TBC1D23 full length C-terminal domain; source: E. coli BL21 plyS, purified (glutathione-Sepharose, thrombin cleavage, Superdex 200 gel filtration)
Kind of assay: ITC; peptide (0.8 to 5 mM) titrated into 100 uM TBC1D23 C-terminal domain, 20 injections of 2.4 ul; 20°C; 100 mM NaCl, 100 mM tris pH 7.4, 1 mM TCEP; mean of three runs. In general terms: ITC needs no label: the signal is the heat of the interaction.

Assay [2] has as its target T2, TBC1D23 C-terminal domain K672A (mouse, UniProt Q8K0F1 559-677, K672A).
T2 construct: TBC1D23, mouse, UniProt Q8K0F1, C-terminal domain (limits as m7, in data S3); source: E. coli BL21 plyS, purified (glutathione-Sepharose, GST cleaved with thrombin, Superdex 200)
Kind of assay: ITC; peptide (0.8 to 5 mM) titrated into 100 μM TBC1D23 C-terminal domain, 20°C, 100 mM NaCl, 100 mM tris pH 7.4, 1 mM TCEP, Nano ITC.

In assay [3] the target is T3, TBC1D23 C-terminal domain I675W (mouse, UniProt Q8K0F1 559-677, I675W).
T3 construct: TBC1D23, mouse, UniProt Q8K0F1, C-terminal domain (limits as m7, in data S3); source: E. coli BL21 plyS, purified (glutathione-Sepharose, GST cleaved with thrombin, Superdex 200)
T3 sequence (Q8K0F1 559-677 I675W): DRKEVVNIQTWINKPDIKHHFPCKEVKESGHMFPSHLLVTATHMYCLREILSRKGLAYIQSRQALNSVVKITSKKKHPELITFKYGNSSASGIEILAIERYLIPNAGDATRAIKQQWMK
The assay is described as above.

For assay [4], the target named is T4, TBC1D23 C-terminal domain (mouse, UniProt Q8K0F1 559-684).
T4 construct: TBC1D23, mouse, UniProt Q8K0F1, C-terminal domain ending with VLDALES at residue 684; used for ITC and for the 3.3 Å crystals; also called the C-terminal domain; TBC1D23 full-length C-terminal domain; source: E. coli BL21 plyS, purified (glutathione-Sepharose, GST cleaved with thrombin, Superdex 200)
T4 sequence (Q8K0F1 559-684): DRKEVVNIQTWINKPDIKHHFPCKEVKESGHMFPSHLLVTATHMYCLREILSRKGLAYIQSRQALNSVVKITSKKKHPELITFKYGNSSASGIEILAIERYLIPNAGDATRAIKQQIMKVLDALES
The assay is described as above.

The results in this text go back to publication PMC11093223, “Cargo selective vesicle tethering: The structural basis for binding of specific cargo proteins by the Golgi tether component TBC1D23” (Science Advances, 2024).

T1 sequence (Q8K0F1 559-684): as above
T2 sequence (Q8K0F1 559-677 K672A): as the sequence (Q8K0F1 559-677 I675W) above, with K114A, W117I counted along it

B1: syntaxin-16 peptide L213A (peptide)
peptide: DDNTAYHRGFTED
notes: syntaxin-16, human, residues 209-221 with L213A
On to B1, for which the Kd – broadly, the equilibrium constant for the complex coming apart – in assay [1] was greater than 200 µM.

B2: syntaxin-16 peptide Y214F (peptide)
peptide: DDNTLFHRGFTED
notes: syntaxin-16, human, residues 209-221 with Y214F
Consider B2, for which binding in assay [1] was characterised by a dissociation constant (Kd) of 15.5 µM.

B3: syntaxin-16 peptide L213F (peptide)
peptide: DDNTFYHRGFTED
notes: syntaxin-16, human, residues 209-221 with L213F
For B3, in assay [1], the Kd amounted to 150 µM.

B4: syntaxin-16 peptide Y214W (peptide)
peptide: DDNTLWHRGFTED
notes: syntaxin-16, human, residues 209-221 with Y214W
In turn, B4 displayed a Kd in assay [1] of 5.6 µM.

B5: syntaxin-16 peptide T212S (peptide)
peptide: DDNSLYHRGFTED
notes: syntaxin-16, human, residues 209-221 with T212S
B5 had a Kd in assay [1] of 30.1 µM. This Kd lies about 5.4-fold higher than the previous one.

B6: syntaxin-16 (209–221) peptide (peptide, UniProt O14662 209-221, looked up)
peptide: DDNTLYHRGFTED
notes: syntaxin-16, human, residues 209 to 221, beginning 209DDNTLY (T212, L213, Y214, R216); also called syntaxin-16 peptide; wild type; source: peptide
As for B6, the results for the dissociation constant Kd in assay [2], in assay [3] and in assay [4] were roughly 30 µM, greater than 300 µM and roughly 1.4 µM, respectively. Besides, the stoichiometry N – broadly, the number of molecules, sites or subunits per partner or assembly – in assay [4] turned out to be 1.

B7: syntaxin-16 peptide Y214F (peptide, UniProt O14662 209-221, looked up)
peptide: DDNTLFHRGFTED
notes: syntaxin-16, human, peptide 209 to 221 as m28; source: peptide
On to B7, for which the dissociation constant (Kd) in assay [4] is roughly 15 µM.

B8: syntaxin-16 peptide Y214W (peptide, UniProt O14662 209-221, looked up)
peptide: DDNTLWHRGFTED
notes: as for B7
As for B8, the Kd in assay [4] was roughly 7 µM.

B9: syntaxin-16 peptide T212S (peptide, UniProt O14662 209-221, looked up)
peptide: DDNSLYHRGFTED
notes: as for B7
Molecule B9 returned an equilibrium dissociation constant (Kd) in assay [4] of roughly 30 µM.
